This note sets out measurements from patent US20200115702A1.

This experiment has as its target BAFF-Fc (Sino Biological) (human) (UniProt Q9Y275). Description: cell-based or functional assay.
UniProt Q9Y275, sequence (Q9Y275 134-285): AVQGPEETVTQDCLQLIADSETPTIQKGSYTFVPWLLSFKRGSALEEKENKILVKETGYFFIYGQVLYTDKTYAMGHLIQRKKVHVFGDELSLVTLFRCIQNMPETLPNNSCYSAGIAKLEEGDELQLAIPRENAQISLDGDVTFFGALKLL

Consider “endogenous BAFF receptor, BR3 (from UniProt Q96RJ3 1-78)”, for which the IC50, inhibition of BAFF bioactivity in the mouse splenocyte assay was 121 nM.
